Experimental data taken from US7109170B2, “Region of factor IXa protease domain that interacts with factor VIIIa and methods therefor” (Saint Louis University, priority 1999, dated 2006).

Tests used:
Type in all cases: biochemical
factor XIa/Ca2+ = biological target: T1, factor XIa/Ca2+ (Homo sapiens, UniProt P03951); experiment: activation of factor IX mutants by factor XIa/Ca2+ (SDS gel); conditions: analyzed by SDS gel electrophoresis
T1 construct: purchased Enzyme Research Laboratories (South Bend, Ind.)
T1 sequence (P03951 388-625 limits assumed): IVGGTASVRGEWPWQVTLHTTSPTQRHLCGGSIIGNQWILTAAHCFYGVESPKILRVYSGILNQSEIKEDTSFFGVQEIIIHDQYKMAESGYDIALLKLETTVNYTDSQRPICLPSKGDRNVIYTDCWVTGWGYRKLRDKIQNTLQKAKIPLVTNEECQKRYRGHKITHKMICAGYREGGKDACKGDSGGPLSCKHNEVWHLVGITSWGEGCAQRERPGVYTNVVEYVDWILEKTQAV
T1 sequence (P03951 19-387 limits assumed): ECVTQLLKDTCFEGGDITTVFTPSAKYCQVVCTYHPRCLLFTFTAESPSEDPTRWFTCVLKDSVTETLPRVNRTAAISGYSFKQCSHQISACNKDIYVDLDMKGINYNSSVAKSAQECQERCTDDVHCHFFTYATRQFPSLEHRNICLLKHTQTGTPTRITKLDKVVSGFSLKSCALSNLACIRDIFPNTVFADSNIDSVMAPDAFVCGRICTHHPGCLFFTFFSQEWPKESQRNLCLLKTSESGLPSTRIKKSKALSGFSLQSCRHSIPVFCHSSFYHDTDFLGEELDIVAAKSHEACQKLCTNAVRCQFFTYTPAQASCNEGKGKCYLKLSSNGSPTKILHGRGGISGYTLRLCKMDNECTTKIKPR
Experimental: The rates of activation of the protease domain factor IX mutants by VIIa/TF and by Factor Xla/Ca^2+ was also determined, under conditions described in Mathur et al., 1997, supra, either by VIIa/TF/Ca^2+ or by factor Xla/Ca^2+. The rates of the mutants were similar to that of IXNP as analyzed by SDS gel electrophoresis.
Various DEGR-ck-inhibited factor IXa proteins were prepared for these experiments as follows. IXNP, IXWT, and each mutant factor IX at 200 μg/ml was activated by factor XIa (2 μg/ml) for 90 min. in TBS, pH 7.4 (0.05 M Tris, 0.15 M NaCl, pH 7.4) containing 5 mM Ca^2+. […] DEGR-IXaNP, DEGR-IXaWT, and various DEGR-IXa mutant proteins were prepared as described in Mathur et al., 1997, supra, and free DEGR-ck was removed as described in Sabharwal et al., 1995, supra and Krishnaswamy, 1992, J. Biol. Chem. 267, 23696–23706.

[1] = tested on: Factor IX deficient plasma; experiment: coagulant activity of XIa-activated IXa proteins
factor X [2] = biological target: T2, factor X (Homo sapiens, UniProt P00742); experiment: factor X activation in complete intrinsic Tenase system (IXa, Ca2+, phospholipid, VIIIa); design: Normal human plasma factor IX (IXNP) and factor X were isolated as described in Bajaj and Birktoft; from tissue; host or cells: human plasma (factor X); factor VIII obtained from Dr. Leon Hoyer, American Red Cross; conditions: 70 pM VIIIa, 0.5 nM IXa, 15 nM X, phospholipid present
T2 sequence (P00742 183-488 limits assumed): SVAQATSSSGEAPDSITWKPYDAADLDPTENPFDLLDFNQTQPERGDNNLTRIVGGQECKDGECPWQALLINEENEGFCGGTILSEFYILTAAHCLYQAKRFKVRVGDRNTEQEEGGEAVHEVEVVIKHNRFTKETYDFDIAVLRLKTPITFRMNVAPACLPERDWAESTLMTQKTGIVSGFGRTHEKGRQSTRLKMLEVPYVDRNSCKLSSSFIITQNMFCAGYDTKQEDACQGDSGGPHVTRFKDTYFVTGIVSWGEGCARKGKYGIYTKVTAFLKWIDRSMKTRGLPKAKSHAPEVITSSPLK
T2 sequence (P00742 41-179 limits assumed): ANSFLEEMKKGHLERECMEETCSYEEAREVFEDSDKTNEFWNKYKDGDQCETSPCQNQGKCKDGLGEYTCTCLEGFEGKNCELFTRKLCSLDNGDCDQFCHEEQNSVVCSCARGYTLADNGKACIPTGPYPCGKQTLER
T2 sequence (P00451 20-759 partner limits assumed): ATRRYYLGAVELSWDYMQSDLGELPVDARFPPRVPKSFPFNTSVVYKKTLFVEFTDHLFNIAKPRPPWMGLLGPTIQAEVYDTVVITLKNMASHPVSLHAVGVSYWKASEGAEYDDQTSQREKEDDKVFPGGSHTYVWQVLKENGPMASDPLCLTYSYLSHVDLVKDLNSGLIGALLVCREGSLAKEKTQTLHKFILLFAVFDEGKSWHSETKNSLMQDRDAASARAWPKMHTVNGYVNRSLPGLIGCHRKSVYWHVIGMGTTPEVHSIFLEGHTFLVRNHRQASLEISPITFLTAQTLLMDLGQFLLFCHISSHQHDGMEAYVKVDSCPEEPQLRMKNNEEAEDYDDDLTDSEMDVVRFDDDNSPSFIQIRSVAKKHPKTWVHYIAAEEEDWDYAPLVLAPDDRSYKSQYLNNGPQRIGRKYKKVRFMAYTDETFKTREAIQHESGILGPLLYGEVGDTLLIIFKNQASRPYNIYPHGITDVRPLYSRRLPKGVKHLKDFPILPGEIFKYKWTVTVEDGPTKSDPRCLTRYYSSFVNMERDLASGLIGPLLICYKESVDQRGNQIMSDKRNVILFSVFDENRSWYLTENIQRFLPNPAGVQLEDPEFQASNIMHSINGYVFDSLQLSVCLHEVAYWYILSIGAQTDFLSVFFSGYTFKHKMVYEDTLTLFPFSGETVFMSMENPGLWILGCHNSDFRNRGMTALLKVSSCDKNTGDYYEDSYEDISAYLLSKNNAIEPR
T2 sequence (P00451 1668-2351 partner limits assumed): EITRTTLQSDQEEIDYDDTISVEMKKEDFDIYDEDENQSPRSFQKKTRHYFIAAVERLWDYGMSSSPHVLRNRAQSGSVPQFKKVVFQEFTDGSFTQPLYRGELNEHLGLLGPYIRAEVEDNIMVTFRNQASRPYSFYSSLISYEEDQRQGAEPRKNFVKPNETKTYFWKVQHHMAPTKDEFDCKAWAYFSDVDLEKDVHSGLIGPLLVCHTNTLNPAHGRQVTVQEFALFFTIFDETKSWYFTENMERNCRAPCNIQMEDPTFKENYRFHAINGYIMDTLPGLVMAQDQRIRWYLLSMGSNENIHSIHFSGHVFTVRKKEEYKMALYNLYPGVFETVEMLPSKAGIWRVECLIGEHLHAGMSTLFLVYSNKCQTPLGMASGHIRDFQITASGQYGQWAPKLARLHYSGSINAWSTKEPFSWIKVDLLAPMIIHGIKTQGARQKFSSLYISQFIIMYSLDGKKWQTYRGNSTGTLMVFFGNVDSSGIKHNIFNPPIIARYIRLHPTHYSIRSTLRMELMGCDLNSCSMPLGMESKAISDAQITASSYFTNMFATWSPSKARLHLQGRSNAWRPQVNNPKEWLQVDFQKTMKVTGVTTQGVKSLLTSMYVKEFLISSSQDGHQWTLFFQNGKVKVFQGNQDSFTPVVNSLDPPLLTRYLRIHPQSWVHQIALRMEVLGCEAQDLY
Experimental: (§1) The ability of each activated mutant to activate factor X in the presence and absence of phospholipid and factor VIIIa was determined as follows. The activation was carried out at 37° C. in a 50 μl reaction volume, in TBS/BSA pH 7.4, for various time periods. At the end of the incubation time period, each reaction mixture received 1 μl of 0.5 M EDTA to stop further generation of factor Xa. A 40 μL aliquot was then added to 0.1 ml quartz cuvette containing S-2222 in 75 μL of TBS/BSA, pH 7.4. The final concentration of S-2222 was 100 μM. The p-nitroaniline release was measured continuously (ΔA405/min) for up to 20 min (Sabharwal et al., 1995 supra; Sabharwal et al., 1997, supra). Factor Xa generated was calculated from a standard curve constructed using factor Xa prepared from insolubilized Russell's viper venom.
(§2) Factor X activation measurements were made under four experimental regimes. In one, Ca^2+ and phospholipid were present. In this system activation was carried out for 5–15 minutes and the concentration of each IXa protein was 20 nM, phospholipid was 25 μM, and factor X was 100 nM. In the second regime, Ca^2+, phospholipid and factor VIIIa were present. […] In the third regime, only Ca^2+ was present. Here, activation was carried out for 2–20 min and concentration of each IXa protein was 400 nM and factor X was 1 μM. Finally, in the fourth regime, Ca^2+ and VIIIa were present. Here, activation was carried out for 15–120 sec and the concentration of each IXa protein was 2 μM, VIIIa was 14 nM, and factor X was 400 nM.
(§3) In all of the above factor X activation experiments, the incubation times chosen were those in which the factor Xa generated was always less than 10 nM. This precautionary measure was taken to prevent activation of factor X by the generated factor Xa (see, e.g., Link. and Castellino, 1982, Arch Biochem. Biophys. 215, 215–221). Further, in those incubation mixtures which contained […], control experiments were also performed in which factor VIIIa was omitted. […] In the presence of factor VIIIa, 10 μM phospholipid was used based upon previous observations (Mathur et al., 1997, supra; van Dieijen et al., 1981, J. Biol. Chem. 256, 3433–3442). The concentrations of factor X selected for each set of reaction conditions are those which are below or at the Km values (van Dieijen et al., supra; Fay and Koshibu, 1998, J Biol. Chem. 273, 19049–19054). In this region of the Michaelis-Menton curve, the rate of formation of factor Xa is proportional to the substrate factor X and therefore to the affinity of the factor IXa enzyme for factor X.
Next, the activation of factor X in a complete intrinsic Tenase system (IXa, Ca^2+, phospholipid, VIIIa) was studied.

factor X [3] = biological target: T2, factor X; experiment: factor X activation by IXa proteins, Ca2+ and VIIIa, no phospholipid; design: Normal human plasma factor IX (IXNP) and factor X were isolated as described in Bajaj and Birktoft; from tissue; host or cells: human plasma (factor X); factor VIII obtained from Dr. Leon Hoyer, American Red Cross; conditions: 14 nM VIIIa, 400 nM factor X
Experimental: as §1, §2, §3

| Substance | rate of activation by factor XIa/Ca2+ (factor XIa/Ca2+) | coagulant activity as compared to IXaNP [1] [%] | X-activation rate, PL-plus system (factor X [2]) [nM/min] | X-activation rate, PL-plus system (factor X [2]; listed as IXaI335A) [nM/min] | X-activation rate, PL-minus system (factor X [3]) [nM/min] |
| --- | --- | --- | --- | --- | --- |
| IXPCEGF1: factor IX in which EGF1 residues 52–85 are replaced by residues 51–92 of protein C | readily activated |  |  |  |  |
| IXaT335A: activated factor IX mutant T335A |  | ~35 | 1.92 ± 0.11 | ~1.9 | 1.83 ± 0.18 |
